The source of these data is IntAct's records for PubMed 26258305.

B1: Protein TIFY 7 (Arabidopsis thaliana (Mouse-ear cress)), Q8W4J8 (parent)
chain: MERDFLGLSDKQYLSNNVKHEVNDDAVEERGLSTKAAREWGKSKVFATSSFMPSSDFQEAKAFPGAYQWGSVSAANVFRRCQFGGAFQNATPLLLGGSVPLPTHPSLVPRVASSGSSPQLTIFYGGTISVFNDISPDKAQAIMLCAGNGLKGETGDSKPVREAERMYGKQIHNTAATSSSSATHTDNFSRCRDTPVAATNAMSMIESFNAAPRNMIPSVPQARKASLARFLEKRKERLMSAMPYKKMLLDLSTGESSGMNYSSTSPT
partner: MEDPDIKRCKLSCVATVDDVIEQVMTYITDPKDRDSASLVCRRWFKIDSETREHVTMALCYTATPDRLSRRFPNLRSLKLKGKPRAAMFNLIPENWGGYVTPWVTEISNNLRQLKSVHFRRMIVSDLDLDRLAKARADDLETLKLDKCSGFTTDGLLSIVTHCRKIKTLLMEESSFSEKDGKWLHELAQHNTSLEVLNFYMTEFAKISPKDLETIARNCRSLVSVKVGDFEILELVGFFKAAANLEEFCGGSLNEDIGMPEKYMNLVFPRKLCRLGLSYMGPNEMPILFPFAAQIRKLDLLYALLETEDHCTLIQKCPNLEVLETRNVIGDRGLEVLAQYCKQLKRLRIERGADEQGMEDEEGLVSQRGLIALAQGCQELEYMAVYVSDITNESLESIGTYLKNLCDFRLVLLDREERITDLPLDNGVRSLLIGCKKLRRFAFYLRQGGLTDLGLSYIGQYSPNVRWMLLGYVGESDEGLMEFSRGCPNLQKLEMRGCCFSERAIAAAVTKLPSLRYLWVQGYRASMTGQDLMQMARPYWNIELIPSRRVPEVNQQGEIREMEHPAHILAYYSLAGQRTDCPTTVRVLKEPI
B2: Protein TIFY 7 (Arabidopsis thaliana (Mouse-ear cress)), Q8W4J8 (parent)
chain: B1 chain

In the assay “coi1_arath COI1, O04197” the parent is B1. Conditions: with coi1_arath COI1, O04197.
In the assay “myc3_arath MYC3, Q9FIP9” the parent is B2. Conditions: with myc3_arath MYC3, Q9FIP9.
In the assay “myc2_arath MYC2, Q39204” the parent is B2. The conditions noted are these: with myc2_arath MYC2, Q39204.
The variants in the assay “myc4_arath MYC4, O49687” derive from B2. The conditions noted are these: with myc4_arath MYC4, O49687.
Sequence of myc4_arath MYC4, O49687 (O49687 whole entry): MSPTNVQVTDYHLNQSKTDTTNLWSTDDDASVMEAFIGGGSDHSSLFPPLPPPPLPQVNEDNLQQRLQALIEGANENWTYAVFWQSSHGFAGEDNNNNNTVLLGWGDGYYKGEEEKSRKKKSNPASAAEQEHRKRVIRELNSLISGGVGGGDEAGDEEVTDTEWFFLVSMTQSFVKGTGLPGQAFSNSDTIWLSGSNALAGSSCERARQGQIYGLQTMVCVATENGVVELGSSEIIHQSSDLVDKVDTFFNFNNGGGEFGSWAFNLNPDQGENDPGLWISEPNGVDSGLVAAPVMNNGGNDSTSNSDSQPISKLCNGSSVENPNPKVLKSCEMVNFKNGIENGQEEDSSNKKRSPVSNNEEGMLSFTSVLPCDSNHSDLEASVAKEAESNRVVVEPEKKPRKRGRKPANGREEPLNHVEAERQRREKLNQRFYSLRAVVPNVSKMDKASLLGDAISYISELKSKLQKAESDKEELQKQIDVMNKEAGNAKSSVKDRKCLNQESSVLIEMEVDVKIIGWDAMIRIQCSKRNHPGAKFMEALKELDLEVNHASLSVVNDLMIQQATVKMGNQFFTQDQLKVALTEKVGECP

Sequence of myc2_arath MYC2, Q39204 (Q39204 whole entry): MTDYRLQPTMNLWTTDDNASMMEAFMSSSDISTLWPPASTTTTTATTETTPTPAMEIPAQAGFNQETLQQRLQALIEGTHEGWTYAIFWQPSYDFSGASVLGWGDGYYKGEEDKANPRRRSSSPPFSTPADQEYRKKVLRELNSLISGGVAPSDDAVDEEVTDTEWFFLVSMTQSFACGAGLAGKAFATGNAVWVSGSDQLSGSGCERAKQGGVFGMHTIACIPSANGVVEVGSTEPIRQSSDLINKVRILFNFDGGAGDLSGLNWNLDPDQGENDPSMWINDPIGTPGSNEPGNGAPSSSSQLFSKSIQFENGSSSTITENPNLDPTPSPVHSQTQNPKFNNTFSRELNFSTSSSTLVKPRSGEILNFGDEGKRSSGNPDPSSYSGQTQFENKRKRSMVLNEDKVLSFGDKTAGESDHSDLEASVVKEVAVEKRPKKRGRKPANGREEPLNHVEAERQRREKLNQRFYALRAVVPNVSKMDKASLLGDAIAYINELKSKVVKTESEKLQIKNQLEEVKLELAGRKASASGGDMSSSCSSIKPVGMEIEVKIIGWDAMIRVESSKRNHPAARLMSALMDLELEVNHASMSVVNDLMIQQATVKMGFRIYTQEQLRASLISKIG
Sequence of myc3_arath MYC3, Q9FIP9 (Q9FIP9 whole entry): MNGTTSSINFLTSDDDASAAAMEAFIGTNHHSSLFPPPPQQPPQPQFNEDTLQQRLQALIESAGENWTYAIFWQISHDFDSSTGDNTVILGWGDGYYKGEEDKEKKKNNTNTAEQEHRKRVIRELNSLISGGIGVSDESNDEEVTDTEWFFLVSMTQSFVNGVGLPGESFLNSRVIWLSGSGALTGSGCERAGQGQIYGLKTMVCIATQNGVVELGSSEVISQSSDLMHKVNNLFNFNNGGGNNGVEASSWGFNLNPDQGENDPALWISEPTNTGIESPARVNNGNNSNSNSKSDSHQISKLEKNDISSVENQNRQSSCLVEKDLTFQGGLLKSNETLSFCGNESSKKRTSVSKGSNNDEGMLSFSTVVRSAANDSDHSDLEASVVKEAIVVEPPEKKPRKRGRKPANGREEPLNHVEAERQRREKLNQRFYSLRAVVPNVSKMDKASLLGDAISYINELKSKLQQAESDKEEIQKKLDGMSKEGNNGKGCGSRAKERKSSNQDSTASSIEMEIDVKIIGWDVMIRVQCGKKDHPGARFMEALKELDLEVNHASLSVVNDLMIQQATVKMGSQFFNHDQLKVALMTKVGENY

For L231A, the “effect of a mutation on the interaction” value in the assay with coi1_arath COI1, O04197 is reported as “decreasing interaction strength”.

R223A;K224A: the “effect of a mutation on the interaction” value with coi1_arath COI1, O04197 is “disrupting interaction strength”.

S218A;V219A;P220A;Q221A: the “effect of a mutation on the interaction” value with coi1_arath COI1, O04197 is listed as “disrupting interaction strength”.

Turning to F230A, in the assay with coi1_arath COI1, O04197, the “effect of a mutation on the interaction” value is reported as “disrupting interaction strength”.

For the variant R234A, in the assay with coi1_arath COI1, O04197, the “effect of a mutation on the interaction” value was “disrupting interaction strength”.

Take L231A: the “effect of a mutation on the interaction” value with myc3_arath MYC3, Q9FIP9 is “disrupting interaction strength”; with myc2_arath MYC2, Q39204, “decreasing interaction strength”; with myc4_arath MYC4, O49687 it was “decreasing interaction strength”.

With L227A, the “effect of a mutation on the interaction” value is recorded as “disrupting interaction strength” with myc3_arath MYC3, Q9FIP9; “disrupting interaction strength” with myc2_arath MYC2, Q39204; “disrupting interaction strength” with myc4_arath MYC4, O49687.

Regarding F230A, the “effect of a mutation on the interaction” value is on record as “disrupting interaction strength” in the assay with myc3_arath MYC3, Q9FIP9; “disrupting interaction strength” in the assay with myc2_arath MYC2, Q39204; “disrupting interaction strength” with myc4_arath MYC4, O49687.

As to R234A, the “effect of a mutation on the interaction” value in the assay with myc3_arath MYC3, Q9FIP9 was “disrupting interaction strength”; with myc2_arath MYC2, Q39204 it was “disrupting interaction strength”; with myc4_arath MYC4, O49687 it was “disrupting interaction strength”.
